From the DeepSol protein solubility set

Test: soluble on expression in E. coli; label from the status in PepcDB or PDB records

Row | Sequence | soluble on expression in E. coli
1 | MGSDKIHHHHHHMKSPQELRNKLFRYWRQPGLRLRQLLDQAAWPLVLSIGKPTAQVFSSQVAMVQKHVEAWREVSVGKVEWKRIGYRSGADLVSIPTQWCLRSPTEWITAMSNEEISAQYMSLEHLVEHLPAVYRRLIITRPSLWKNKRSEEVIQVAGLAQRLSPGCAQGLPLRLLSGYGVDTKFFERNELLLSKMLDVRYEGEASRQGLCDFLDAYDDTSHWVLLAPLEAGLLPFKRQLVTTSELGRASLPGTRLLIVENQKCLHLLRELPGTIAILGCGSDLAWLGSAQLHGKSIAYWGDVDTWGMRMLARARSRFNAVIPLLMTATVFDAHSDFTVPEPIRAQDTPPADLTPSETALFKRLVQCSRGRLEQEFISREVVWAALEEWIQRRRG | not soluble
2 | MSKRPVIESEKPAWHDEDDDNMVVAVPKKVKMTMRVELKRTTDEEHGELDSKEYVGRLQEAFRKRHGGTPKWAKAAAGDEEEGSLLKTAAGYLAKDVNLPKTTIHTTLIKDFNIGHRYTRGITVVKFHKTRPVLIVADQGGNVQLFKVSREVKKDRFLQSANFSKFPIDSLEIADKGHSVICSSSRKEYLMQYNMETREVTQLKPPNTVPKQGIRLFAISHDSQFLAIAGHNSHIYVLHATSMEHITTISLPANASEIKFFPSHSREIWIICETGQIVIANIGLPGTKSSQHTFTDDGAVHGTTLAISQHGDYFATGSDTGIVNVYSGNDCRNSTNPRPLFNVSNLVTAVSSIAFNSDAQLMAICSNVKDNHLRLVHVASQTTFKNFPERNGKVTHARCVEFSPNGGYMAVGNDDGRLHVFEIHHFTDY | not soluble
3 | MAHHHHHHMSTIYNAVDASTLNDRCRTDLLDTVAQLGRHCETLPKKAVTTADAPLPSCTFNTTVSRSQKEINCSNEAALDKYIEEKGATRWRTTQALASTYFKDHKPKFHGALRTQDCFRDTRDITQLSSKEKDFVHRYAEAKMKKSIPREESDDVAKKVATEAYTEAFRKFKGRDPTEKELLEVERLYFAYADDGAVGVVQKPHFHGPHMHVSICNRKYVTCPNQVYRASLPAVRNARSRFPGPIPVWTSTKNLHAVVSNDTYRPGVHNVSKFGETSSK | not soluble
4 | MSLNKEQLKSLVIKTIDENREKILKIGQGIYKNPEYGYKEFKTTEAVSNFFEQELNLSVEKNIAVTGCKADANSSKKGPHISILGELDGISCKEHKDANEIGASHTCGHNIQIAGMLGAAVGLVKSGVLEHLDGKVSFMATPAEEFIELEYREQLKKEGKITYFGGKQELIKRGYFDDIDISMMFHASDLGEDKALVGPESNGFVGKKVKFIGKESHAGSAPHDGINALNAAMLAINNVNALRETFKESERVRFHPIITKGGDIVNVVPADVHMESYVRARTINGMIDANERINKALMAGGMAVGADVEITEIPGYLPILRYKSLDNLFKNNLEDLGLKGKVIDGGDFTGSFDFGDVSHIMPTLHPMIGGVKGALHTRDFEIVDEDLAYIIPAKAMALTVVDLLFDNAKDAKDILDTFTPVMTKKEYLTFLEKHDKTEGHHHHHH | soluble
5 | ETIASELKAIGKELEDQKKEENIQIAKIAKEKFDFLSTFKVGPYDLIDEDIQMKIKRTLYSSLDYKKENIEKLKEILEILKKNSEHYNIIGRLIYHISWGIQFQIEQNLELIQNGVENLSQEESKSLLMQIKSNLEIKQRLKKTLNETLKVYNQNTQDNEKILAEHFNKYYKDFDTLKPAF | soluble
6 | MTALTWTDERVEQLKKLWEGGLSASQIAAELGNVTRNAVIGKVHRLGLSGRAKSPTSAAPRPRKARPVQQMMRVTRPVARGNTALAHAFEVEAEPDPIAFDNVVPMNQRLSLLELNEATCHWPVGDPSSPEFFFCGGKSLPGLPYCAHHSRIAYQPVGDRRRAAPKTTRLEHHHHHH | soluble
7 | MAHHHHHHMMSADPNSFEAIRPKLTAQTLQDIEGLDPQKYGFGREECCGPIPTKIIGSMSLREHIFLNTRMPAREWDKRTENVPGFKELSQRVKHALPDASFTVSHLDQDTEDSILHCKVDDDKKAVIITQYSSVSEPYELPWEVKGTLAVDRSGEYFIFVCSHFTRDARCGYCGSVLIDLFRHALLEKMGAGGTARVTVCSCSHVGGHVYAGNVIIYSRHGGICYGLFKPEDVLPVVDAIAEDKGAIPESLRNRIRGQMGSNAS | soluble
8 | MSAIWLSGAQAFCPAPASLPVAHVQRVVDGDTLRLTDGRNVRMIGLNTPETGKKGRSAEPFAEAAKKRLQALVDKSGGQISLRVGQQGKDHYGRTLANVYGRNGDNLEAQLLSEGLGYLVAVAPNVALVDCQQSAEREARQARRGVWRNSQVQPSDKLRKGGFAVVSGKVRSVQRNRGGIWIELHGSVVLRVAPDQAFRFDMAALERLKGRQIETRGWVIDRSGRGGLKAGQSRWMIALSHPAMLSLLEHHHHHH | not soluble
